Results: patent US11351268B2, “FGF21 C-terminal peptide optimization” (INDIANA UNIVERSITY RESEARCH AND TECHNOLOGY CORPORATION, priority 2016, dated 2022)
Changes are numbered by the printed parent chain. Names and notes keep the numbering of the source. Values joined by “and” are separate entries in the source; they are usually repeats but may differ in a detail not shown here. Equal values may be shown once. Read-outs that look alike come from different tables or passages of the source. Blank lines part the entries; values can stand above or below the molecule they belong to.

Tests used:
mouse KLB = molecular target: T1, mouse KLB (Mus musculus, UniProt P16092+Q99N32); test: agonism in cells overexpressing mouse KLB; type: cell-based; details: FIG. 11B, read-out: potency (agonism)
T1 construct: expressed in transfected cells

FGF21 receptor = test: Erk1/2 phosphorylation assay: agonist activity in 293T HEK hKLB cells; type: cell-based, human; details: for IC50: full length FGF21 analogs, tested in triplicate
Experimental: Cells were cultured in 10% Fetal Bovine Serum containing DMEM High glucose GLUTAMAX® at 37 C, 95% humidity, 5% CO2. For generating the cell line with stable expression, human KLB gene was synthesized by Genscript and subcloned into pcDNA3.1(+) with ZEOCIN® resistance vector (INVITROGEN®) by NheI and NotI restriction enzyme sites. HEK 293T cells were obtained from ATCC and were transiently transfected at 80% confluency using Lipofectamine 3000 (Invitrogen). Selection for KLB-expressing cells was initiated 48 hours post-transfection in the growth media containing 100 μg/ml of ZEOCIN® (Gibco) and continued for 4 weeks with fresh media added every third day. Human KLB expression in pooled cells was confirmed by Western blot and a functional FGF21 MAPK phosphorylation assay.
293 HEK cells expressing hKLB were plated to 90% confluency in 96 well plates coated with poly-D-Lysine. Cells were serum starved for three hours in 0.1% BSA containing media prior to stimulation with protein and/or an antagonist peptide for ten minutes at 37° C. The cell lysate was used for the detection of phospho-Erk1/2 levels by AlphaSureFire kit using the prescribed protocol. The degree of biochemical activation was recorded and analyzed using Origin software by logistic curve fitting. Tests at each concentration were done in triplicates, and the standard deviation is as shown in the graphs. The calculation of maximal activities was done keeping the FGF21 157-181 or FGF19 169-194 peptide activity as standard. The difference between the Erk1/2 phosphorylation signal for the highest (10 μM) and the lowest (0 μM) tested dose for native peptide was considered as 100% and accordingly all the other values were assigned.

[1] = in vivo administration of FGF analogs to mice on diabetogenic diet; parameters: species or system C57Bl/6 mice; details: 0.3 or 1.0 mg/kg daily subcutaneous, relative to native FGF21; for change in body weight: 6 days
Experimental: C57Bl/6 mice were obtained from Jackson Laboratories and fed a diabetogenic diet from Research Diets: a high-sucrose diet with 58% kcal from fat. Mice were group-housed on a 12:12-h light-dark cycle at 22° C. with free access to food and water. All studies were approved by and performed according to the guidelines of the Institutional Animal Care and Use Committee of the University of Cincinnati. All mice were treated by daily subcutaneous injections delivered in physiologically buffered saline at a dose of 0.3 or 1 mg/kg. Animals were weighed and food consumption was measured each day.
Unless indicated otherwise, all statistical analyses were performed using GraphPad Prism. The analysis of the results obtained in the in vivo experiments was performed using one-way ANOVAs followed by Tukey post hoc tests. P values lower than 0.05 were considered significant. The results are presented as means±s.e.m. of 7-8 replicates per group. Receptor activation data is ±s.d.
The effect of FGF analog V2-0278-1A on mice was investigated by administering either vehicle, FGF21 (at 0.3 mg/kg or 1.0 mg/kg) or V2-0278-1A (at 0.3 mg/kg or 1.0 mg/kg) and monitoring weight over the course of 6 days of treatment.

[2] = FIG. 11A, cells overexpressing human KLB, read-out: potency (agonism)
[3] = FIGS. 9A/9B, full length proteins, Erk1/2 phosphorylation, read-out: EC-50
[4] = FIG. 12, cells overexpressing human KLB, read-out: potency

T1 sequence (Q99N32 whole entry): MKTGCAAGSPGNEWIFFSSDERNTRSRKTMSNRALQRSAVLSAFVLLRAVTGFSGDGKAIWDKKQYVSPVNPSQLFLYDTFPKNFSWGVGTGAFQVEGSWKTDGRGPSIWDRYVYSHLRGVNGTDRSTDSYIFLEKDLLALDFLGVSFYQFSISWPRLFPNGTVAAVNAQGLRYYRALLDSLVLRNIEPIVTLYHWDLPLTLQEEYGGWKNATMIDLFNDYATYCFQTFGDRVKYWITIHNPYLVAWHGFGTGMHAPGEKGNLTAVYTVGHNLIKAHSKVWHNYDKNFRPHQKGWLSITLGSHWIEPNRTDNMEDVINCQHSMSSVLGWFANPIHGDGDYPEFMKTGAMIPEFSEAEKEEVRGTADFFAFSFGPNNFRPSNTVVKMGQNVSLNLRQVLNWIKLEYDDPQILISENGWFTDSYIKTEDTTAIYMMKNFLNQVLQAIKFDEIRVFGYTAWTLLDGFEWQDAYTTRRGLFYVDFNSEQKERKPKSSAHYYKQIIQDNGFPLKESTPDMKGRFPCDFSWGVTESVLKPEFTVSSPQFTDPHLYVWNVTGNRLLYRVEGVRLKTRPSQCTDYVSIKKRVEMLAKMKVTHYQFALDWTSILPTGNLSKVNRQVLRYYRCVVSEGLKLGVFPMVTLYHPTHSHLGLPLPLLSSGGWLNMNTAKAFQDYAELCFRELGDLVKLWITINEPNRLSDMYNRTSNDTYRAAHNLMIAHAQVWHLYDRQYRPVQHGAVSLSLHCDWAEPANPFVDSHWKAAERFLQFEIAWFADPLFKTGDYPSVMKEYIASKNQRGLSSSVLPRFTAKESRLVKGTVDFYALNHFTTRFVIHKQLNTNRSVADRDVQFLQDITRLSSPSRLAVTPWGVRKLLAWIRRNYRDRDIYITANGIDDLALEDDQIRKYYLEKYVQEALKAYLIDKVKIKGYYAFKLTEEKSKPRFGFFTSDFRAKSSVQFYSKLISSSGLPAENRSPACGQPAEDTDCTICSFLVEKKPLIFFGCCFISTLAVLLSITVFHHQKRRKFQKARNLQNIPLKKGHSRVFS
T1 sequence (P16092 22-822): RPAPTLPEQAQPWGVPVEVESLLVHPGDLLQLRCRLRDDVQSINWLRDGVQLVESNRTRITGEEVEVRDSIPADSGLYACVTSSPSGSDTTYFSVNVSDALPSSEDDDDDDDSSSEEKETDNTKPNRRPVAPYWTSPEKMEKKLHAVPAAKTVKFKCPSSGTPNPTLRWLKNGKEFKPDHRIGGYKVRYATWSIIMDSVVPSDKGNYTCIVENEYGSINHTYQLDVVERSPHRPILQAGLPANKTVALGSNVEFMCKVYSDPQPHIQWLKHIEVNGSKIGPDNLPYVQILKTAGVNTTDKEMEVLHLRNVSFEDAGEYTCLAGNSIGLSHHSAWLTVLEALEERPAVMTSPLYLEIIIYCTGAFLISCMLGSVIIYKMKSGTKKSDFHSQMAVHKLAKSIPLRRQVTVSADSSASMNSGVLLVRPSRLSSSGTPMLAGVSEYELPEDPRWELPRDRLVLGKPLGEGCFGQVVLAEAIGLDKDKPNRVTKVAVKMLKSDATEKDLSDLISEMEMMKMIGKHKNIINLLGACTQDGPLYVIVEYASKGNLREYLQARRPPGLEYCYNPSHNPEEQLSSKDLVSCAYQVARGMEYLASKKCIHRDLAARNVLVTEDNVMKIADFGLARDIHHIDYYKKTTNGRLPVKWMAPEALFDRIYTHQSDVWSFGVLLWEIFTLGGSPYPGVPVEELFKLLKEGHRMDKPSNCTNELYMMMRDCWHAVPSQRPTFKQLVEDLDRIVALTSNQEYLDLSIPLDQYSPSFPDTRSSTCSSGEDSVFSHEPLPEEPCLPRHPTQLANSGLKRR
Sequence of FGF21 receptor (Q86Z14 whole entry): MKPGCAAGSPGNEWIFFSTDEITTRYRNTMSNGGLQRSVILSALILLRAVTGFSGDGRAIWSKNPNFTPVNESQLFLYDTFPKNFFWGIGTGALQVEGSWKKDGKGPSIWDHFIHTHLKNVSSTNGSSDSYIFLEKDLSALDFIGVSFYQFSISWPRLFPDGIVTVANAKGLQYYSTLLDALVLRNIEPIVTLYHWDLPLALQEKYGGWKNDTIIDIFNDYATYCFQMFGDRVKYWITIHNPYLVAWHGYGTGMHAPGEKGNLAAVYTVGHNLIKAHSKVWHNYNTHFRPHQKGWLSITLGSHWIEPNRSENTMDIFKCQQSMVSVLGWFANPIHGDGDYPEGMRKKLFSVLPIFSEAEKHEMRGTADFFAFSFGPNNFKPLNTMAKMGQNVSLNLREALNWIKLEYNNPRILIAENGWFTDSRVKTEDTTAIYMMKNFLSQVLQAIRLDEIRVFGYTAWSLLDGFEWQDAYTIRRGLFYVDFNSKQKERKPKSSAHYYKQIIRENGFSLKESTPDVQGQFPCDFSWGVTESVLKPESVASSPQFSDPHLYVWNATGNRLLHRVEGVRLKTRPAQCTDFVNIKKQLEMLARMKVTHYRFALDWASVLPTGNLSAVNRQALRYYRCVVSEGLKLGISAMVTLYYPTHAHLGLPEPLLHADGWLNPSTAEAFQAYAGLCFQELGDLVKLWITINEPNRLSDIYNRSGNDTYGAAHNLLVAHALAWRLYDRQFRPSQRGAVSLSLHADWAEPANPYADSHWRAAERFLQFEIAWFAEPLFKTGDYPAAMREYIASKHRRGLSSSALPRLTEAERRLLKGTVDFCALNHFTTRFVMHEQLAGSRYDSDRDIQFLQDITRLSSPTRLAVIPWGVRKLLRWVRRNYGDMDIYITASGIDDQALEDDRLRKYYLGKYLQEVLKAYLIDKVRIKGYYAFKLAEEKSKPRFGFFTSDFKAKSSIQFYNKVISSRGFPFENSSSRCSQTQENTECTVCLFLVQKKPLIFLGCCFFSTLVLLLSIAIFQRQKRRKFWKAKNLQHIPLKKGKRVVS

Molecule: FGF19: native full length FGF19 protein [reference compound]
EC50 (mouse KLB): 25.7 ± 21.3 nM | EC50 (FGF21 receptor; [2]): 65.8 ± 58.2 nM | % maximal activity (FGF21 receptor; FIGS. 9A/9B, full length proteins, Erk1/2 phosphorylation): 27% | EC50 (FGF21 receptor; [3]): 148 nM

B1: 0278-1A: fusion of the N-terminus of FGF21 and C-terminal peptide FGF19 A26 (protein, listed as Homo sapiens)
chain: HPIPDSSPLLQFGGQVRQRYLYTDDAQQTEAHLEIREDGTVGGAADQSPESLLQLKALKPGVIQILGVKTSRFLCQRPDGALYGSLHFDPEACSFRELLLEDGYNVYQSEAHGLPLHLPGNKSPHRDPAPRGPARFLPLPGLPPALPEPPGILAPQLETDSMDPFGLVTGLEAVRSPSFEA
EC50 (mouse KLB): 2.15 ± 0.54 nM | EC50 (FGF21 receptor; [2]): 1.82 ± 0.37 nM | EC50 (FGF21 receptor; [4]): 1.13 ± 0.28 nM

B2: V2-0278-1A: 0278-1A with A31C, G43C, L98D, L100K, N121D, D127K (protein, listed as Homo sapiens)
chain: B1 chain with A31C, G43C, L98D, L100K, N121D, D127K
EC50 (FGF21 receptor; [4]): 0.35 ± 0.12 nM | fold higher potency versus 0278-1A (FGF21 receptor; cells overexpressing human KLB): 2-3 × | change in body weight [1]: enhanced weight loss | change in body weight ([1]; listed as 0361): superior change in body weight | food intake [1]: reduced food intake | food intake ([1]; listed as 0361): greater reduction in total food intake

B3: FGF21: native full length mature FGF21 protein (protein, listed as Homo sapiens)
chain: HPIPDSSPLLQFGGQVRQRYLYTDDAQQTEAHLEIREDGTVGGAADQSPESLLQLKALKPGVIQILGVKTSRFLCQRPDGALYGSLHFDPEACSFRELLLEDGYNVYQSEAHGLPLHLPGNKSPHRDPAPRGPARFLPLPGLPPALPEPPGILAPQPPDVGSSDPLSMVGPSQGRSPSYAS
EC50 (mouse KLB): 3.96 ± 1.51 nM | EC50 (FGF21 receptor; [2]): 8.42 ± 4.1 nM | EC50 (FGF21 receptor; [3]): 4.5 nM and 3.3 nM

B4: FGF21 486K: analog of FGF21 486A where the C-terminal alanine is replaced with a lysine (protein)
chain: HPIPDSSPLLQFGGQVRQRYLYTDDAQQTECHLEIREDGTVGCAADQSPESLLQLKALKPGVIQILGVKTSRFLCQRPDGALYGSLHFDPEACSFREDLKEDGYNVYQSEAHGLPLHLPGDKSPHRKPAPRGPARFLPLPGLPPALPEPPGILAPQPPDVGSSDPFGLVGPSQGRSPSFEK
IC50 (FGF21 receptor): 3.16 ± 0.56 nM

B6: FGF21 480A: modified FGF21 N-terminus fused to peptide 0480 (protein, listed as Homo sapiens)
chain: B4 chain with G161F, S163M, K181A
IC50 (FGF21 receptor): 0.43 ± 0.04 nM

B8: FGF21 470A: modified FGF21 N-terminus fused to peptide 0470 (protein, listed as Homo sapiens)
chain: B4 chain with S163M, P171R, K181A
IC50 (FGF21 receptor): 0.61 ± 0.06 nM

The remaining lines, values ahead:

IC50 (FGF21 receptor): 0.51 ± 0.21 nM
B5: FGF21 431A: FGF21 N-terminus (A31C, G43C, L98D, L100K, N121D, D127K) fused to peptide 0431 (protein, listed as Homo sapiens)
chain: B4 chain with S163M, K181A

IC50 (FGF21 receptor): 6.14 ± 1.93 nM
B7: FGF21 470K: analog of FGF21 470A where the C-terminal alanine is replaced with a lysine (protein)
chain: B4 chain with S163M, P171R

IC50 (FGF21 receptor): 4.3 ± 0.07 nM
B9: FGF21 431K: analog of FGF21 431A where the C-terminal alanine is replaced with a lysine (protein)
chain: B4 chain with S163M

IC50 (FGF21 receptor): 0.21 ± 0.03 nM
B10: FGF21 486A: modified FGF21 N-terminus fused to peptide 0486 (protein, listed as Homo sapiens)
chain: B4 chain with K181A

IC50 (FGF21 receptor): 1.62 ± 0.54 nM
B11: FGF21 480K: analog of FGF21 480A where the C-terminal alanine is replaced with a lysine (protein)
chain: B4 chain with G161F, S163M
